Source: patent publication US20060257492A1, “Suspension of calcium phosphate particulates for local delivery of therapeutic agents” (DePuy Products, Inc., priority 2005, published 2006)

Experiments:
[1] = Osteocalcin adsorption, elution and dissolution test on biomimetic apatite (HPLC); format: physicochemical; settings: 20 μg protein
Procedure: The test with osteocalcin was conducted by incubating biomimetic apatite prepared on Ti6Al4V substrates with phosphate buffered saline (PBS) containing 0.1 mg/mL (bovine serum albumin) BSA. […] Eighty five percent of the original protein (20 μg) is adsorbed by biomimetic apatite crystals within 3 hours of test. An elution test was designed to further test the affinity of biomimetic apatite to osteocalcin in PBS containing 0.1 mg/mL BSA was measured (FIG. 6). Only ˜6% of the originally applied protein (20 μg) was eluted out from the biomimetic apatite crystals after 20 hours of incubation.

[2] = TGF-β1 adsorption, elution and dissolution test on biomimetic apatite (HPLC); format: physicochemical
Procedure: A parallel study was designed for testing the interaction between biomimetic apatite mineral with TGF-β1 by using a sodium acetate buffer containing 0.1 mg/mL BSA. […] Fifty five percent of growth factor (20 μg) was adsorbed by biomimetic apatite crystallites after 4 hours. Ten percent additional protein was adsorbed in the next 20 hour.

## osteocalcin (YLYQWLGAPVPYPDPLEPRREVCELNPDCDELADHIGFQEAYRRFYGPV; UniProt P02818 52-100, looked up)
[1]; PBS containing 0.1 mg/mL BSA, after 20 hours of incubation
  originally applied protein eluted out from the biomimetic apatite crystals: ~6%
[1]; PBS containing 0.1 mg/mL BSA, within 3 hours
  original protein adsorbed by biomimetic apatite crystals: Eighty five
[1]; minerals fully dissolved in acid
  protein recovered after dissolution of the minerals in acid: ~64%

## transforming growth factor-beta-1 [TGF-β1]
[2]; 20 μg, sodium acetate buffer containing 0.1 mg/mL BSA, after 4 hours
  growth factor adsorbed by biomimetic apatite crystallites: Fifty five
[2]; compared with osteocalcin
  elution and dissolution profiles: very similar to those of osteocalcin
[2]; sodium acetate buffer containing 0.1 mg/mL BSA, in the next 20 hour
  additional protein adsorbed: Ten
